Measurements as given in patent US20030092632A1, “Sulfated CCR5 peptides for HIV-1 infection” (priority 2001, published 2003).

Experiments:
CCR5+ cells = details: pre-treatment of target cells; Farzan et al. 1999; cited from earlier work
CCR5 = assay: flow cytometry on L1.2-CCR5+ cells, no peptide (defined as 100%), PE-streptavidin
[1] = biological target: envelope glycoproteins from HIV-1 strain JR-FL on NLluc+env- pseudotyped particles (HIV-1 JR-FL); assay: cell-based or functional assay
HIV-1 = details: by associating with CD4 or gp120; literature; cited from earlier work

## [Na+].[O-][Cl+2]([O-])[O-] [sodium chlorate]
CCR5+ cells
  Binding of a gp120/CD4 complex to CCR5+ cells: decreased

## biotinylated gp120JR-FL/CD4-IgG2 complex
CCR5
  m.f.i.: 40 m.f.i.

## CCR5 Nt peptide S-3/10/14
[1]
  inhibition of viral entry, luciferase-based single round of entry assay, HeLa-CD4+CCR5+ and U87MG-CD4+CCR5+ cells, peptide 100 µM: 50%

## CCR5 Nt peptide S-10/14
[1]
  inhibition of viral entry, luciferase-based single round of entry assay, HeLa-CD4+CCR5+ and U87MG-CD4+CCR5+ cells, peptide 100 µM: 50%

## dextran sulfate
HIV-1
  Inhibition of HIV-1 entry: can inhibit HIV-1 entry
